The target in test [1] is T1, cynomolgus monkey FcγRIIa1 extracellular domain, His-tagged (cynomolgus monkey).
T1 construct: also called cyno FcγRIIa1; cynoFcgRIIa1; not shown: C-terminal His-tag
T1 chain: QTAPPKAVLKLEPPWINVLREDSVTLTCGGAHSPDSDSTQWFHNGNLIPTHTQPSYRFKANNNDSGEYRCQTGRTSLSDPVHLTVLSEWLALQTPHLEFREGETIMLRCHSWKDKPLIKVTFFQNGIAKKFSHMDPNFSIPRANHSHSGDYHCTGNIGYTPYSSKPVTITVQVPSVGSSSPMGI
Put plainly: SPR (BIACORE), captured antibody, FcgR as analyte. Here is the method:
(§1) The kinetic analysis of interactions between these antibodies and FcγR was carried out using BIACORE® T200 or BIACORE® 4000 (GE Healthcare). HBS-EP+ (GE Healthcare) was used as the running buffer, and the measurement temperature was set to 25° C. A chip produced by immobilizing Protein A. Protein A/G or mouse anti-human IgG kappa light chain (BD Biosciences) onto a Series S Sensor Chip CM4 or CM5 (GE Healthcare) by the amine-coupling method was used. […] After the measurement, the antibody captured on the chip was washed off by allowing reaction with 10 mM glycine-HCl, pH1.5 and 25 mM NaOH so that the chip was regenerated and used repeatedly. The sensorgrams obtained as measurement results were analyzed by the 1:1 Langmuir binding model using the BIACORE® Evaluation Software to calculate the binding rate constant ka (L/mol/s) and dissociation rate constant kd (l/s), and the dissociation constant KD (mol/L) was calculated from these values. […] Regarding such interactions, KD values were calculated using the following 1:1 binding model described in BIACORE® T100 Software Handbook BR1006-48 Edition AE.
A general note: In SPR one partner is held on a chip, and binding of the other changes the refractive index at the surface.

In test [2] the target is T2, cynomolgus monkey FcγRIIa2 extracellular domain, His-tagged (cynomolgus monkey).
T2 construct: also called cyno FcγRIIa2; cynoFcgRIIa2; not shown: C-terminal His-tag
T2 chain: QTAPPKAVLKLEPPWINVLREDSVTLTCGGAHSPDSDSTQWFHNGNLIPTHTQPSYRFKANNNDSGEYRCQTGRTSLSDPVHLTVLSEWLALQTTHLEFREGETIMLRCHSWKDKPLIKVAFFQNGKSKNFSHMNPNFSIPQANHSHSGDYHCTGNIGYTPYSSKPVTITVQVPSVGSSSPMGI
Kind of test: SPR (BIACORE), captured antibody, FcgR as analyte. The procedure: as §1

For test [3], the target named is T3, cynomolgus monkey FcγRIIa3 extracellular domain, His-tagged (cynomolgus monkey).
T3 construct: also called cyno FcγRIIa3; cynoFcgRIIa3; not shown: C-terminal His-tag
T3 chain: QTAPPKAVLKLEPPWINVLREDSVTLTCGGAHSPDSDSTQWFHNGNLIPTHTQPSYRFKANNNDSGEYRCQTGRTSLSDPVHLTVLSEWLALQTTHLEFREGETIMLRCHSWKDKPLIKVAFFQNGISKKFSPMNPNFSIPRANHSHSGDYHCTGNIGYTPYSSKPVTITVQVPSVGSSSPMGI
Kind of test: SPR (BIACORE), captured antibody, FcgR as analyte. Here is the method: as §1

For test [4], the target named is T4, cynomolgus monkey FcγRIIb extracellular domain, His-tagged (cynomolgus monkey).
T4 construct: also called cyno FcγRIIb; cynoFcγRIIb; not shown: C-terminal His-tag
T4 chain: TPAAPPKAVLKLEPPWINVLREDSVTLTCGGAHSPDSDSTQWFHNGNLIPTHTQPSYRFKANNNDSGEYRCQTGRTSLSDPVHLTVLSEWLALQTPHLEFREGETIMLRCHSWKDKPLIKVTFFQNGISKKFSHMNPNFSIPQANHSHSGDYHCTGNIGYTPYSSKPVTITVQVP
Kind of test: SPR (BIACORE), captured antibody, FcgR as analyte. The procedure:
as §1

The target of test [5] is T5, cynomolgus monkey FcγRIIIaS extracellular domain, His-tagged (cynomolgus monkey, UniProt Q8SPW2 21-206 at identity 1.00)).
T5 construct: also called cyno FcγRIIIaS; cynoFcγRIIIaS; not shown: C-terminal His-tag
T5 chain: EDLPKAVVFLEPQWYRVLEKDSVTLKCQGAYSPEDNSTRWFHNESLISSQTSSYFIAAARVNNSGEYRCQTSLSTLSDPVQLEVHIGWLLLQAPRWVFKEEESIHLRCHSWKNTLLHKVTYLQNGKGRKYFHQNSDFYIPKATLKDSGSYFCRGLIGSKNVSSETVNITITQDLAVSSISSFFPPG
Kind of test: SPR (BIACORE), captured antibody, FcgR as analyte. The procedure: as §1

Test [6] addresses T6, human FcγRIIaH extracellular domain, His-tagged (human, UniProt P12318 34-217).
T6 construct: also called human FcγRIIa (type H); FcgRIIaH; not shown: C-terminal His-tag
T6 sequence: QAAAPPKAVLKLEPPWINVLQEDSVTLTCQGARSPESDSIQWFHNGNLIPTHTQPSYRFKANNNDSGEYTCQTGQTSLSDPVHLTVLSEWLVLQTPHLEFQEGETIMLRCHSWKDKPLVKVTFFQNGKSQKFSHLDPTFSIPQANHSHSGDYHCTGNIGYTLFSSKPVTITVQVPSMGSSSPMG
Put plainly: SPR (BIACORE), captured antibody, FcgR as analyte. The procedure:
as §1

Test [7] addresses T7, human FcγRIIaR extracellular domain, His-tagged (human, UniProt P12318 34-217).
T7 construct: also called human FcγRIIa (type R); FcgRIIaR; not shown: C-terminal His-tag
T7 chain: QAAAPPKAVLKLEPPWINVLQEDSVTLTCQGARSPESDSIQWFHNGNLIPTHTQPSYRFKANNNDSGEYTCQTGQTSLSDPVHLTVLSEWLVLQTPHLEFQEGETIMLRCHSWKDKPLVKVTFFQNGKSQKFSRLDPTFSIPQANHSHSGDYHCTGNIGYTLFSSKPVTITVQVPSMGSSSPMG
Put plainly: SPR (BIACORE), captured antibody, FcgR as analyte. The procedure: as §1

The target of test [8] is T8, human FcγRIIb extracellular domain, His-tagged (human, UniProt P31994 43-217).
T8 construct: also called FcgRIIb (human); not shown: C-terminal His-tag
T8 sequence: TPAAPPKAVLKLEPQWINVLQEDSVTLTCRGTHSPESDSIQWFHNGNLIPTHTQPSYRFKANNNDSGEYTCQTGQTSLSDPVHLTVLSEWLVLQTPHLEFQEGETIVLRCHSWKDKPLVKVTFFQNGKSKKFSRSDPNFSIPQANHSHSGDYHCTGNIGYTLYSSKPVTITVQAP
Put plainly: SPR (BIACORE), captured antibody, FcgR as analyte. Here is the method: as §1

In test [9] the target is T9, human FcγRIIIaV extracellular domain, His-tagged (human, UniProt P08637 17-208).
T9 construct: also called FcgRIIIaV; not shown: C-terminal His-tag
Put plainly: SPR (BIACORE), captured antibody, FcgR as analyte. The procedure:
as §1

The target in test [10] is T10, human FcγRIIaH extracellular domain, C-terminal His-tag (human, UniProt P12318 34-217).
T10 construct: also called human FcγRIIa (type H); FcgRIIaH
T10 sequence: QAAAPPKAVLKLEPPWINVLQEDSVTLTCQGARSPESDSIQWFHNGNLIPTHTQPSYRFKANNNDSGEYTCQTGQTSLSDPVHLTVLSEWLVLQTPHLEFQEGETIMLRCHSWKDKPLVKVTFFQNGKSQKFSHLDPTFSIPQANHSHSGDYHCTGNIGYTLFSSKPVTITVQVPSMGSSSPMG
Put plainly: SPR 25C; FcgR bound per captured antibody, relative to parent B3. Here is the method:
(§2) These Fc variants are referred to as B3 variants. B3 variants were expressed and the binding of protein-A purified antibodies to each FcγR (FcγRIIa type H. FcγRIIa type R, FcγRIIb, and FcγRIIIaF) was comprehensively evaluated as follows. Analysis of interaction between each altered antibody and the Fcγ receptor prepared as mentioned above was carried out using BIACORE® T100 (GE Healthcare), BIACORE® T200 (GE Healthcare), BIACORE® A100, or BIACORE® 4000. HBS-EP+(GE Healthcare) was used as the running buffer, and the measurement temperature was set to 25° C. Chips produced by immobilizing Protein A (Thermo Scientific), Protein A/G (Thermo Scientific), or Protein L (ACTIGEN or BioVision) by the amine coupling method to a Series S sensor Chip CM5 or CM4 (GE Healthcare) were used. After capturing of antibodies of interest onto these sensor chips, an Fcγ receptor diluted with the running buffer was allowed to interact, the amount bound to an antibody was measured. However, since the amount of Fcγ receptor bound depends on the amount of the captured antibodies, the amount of Fcγ receptor bound was divided by the amount of each antibody captured to obtain corrected values, and these values were compared. Furthermore, antibodies captured onto the chips were washed by 10 mM glycine-HCl pH1.5, and the chips were regenerated and used repeatedly. […] The value obtained by multiplying this value by 100 was used as an indicator of the relative FcγR-binding activity of each variant.

In test [11] the target is T11, human FcγRIIb extracellular domain, C-terminal His-tag (human, UniProt P31994 43-217).
T11 construct: also called FcgRIIb (human)
T11 sequence: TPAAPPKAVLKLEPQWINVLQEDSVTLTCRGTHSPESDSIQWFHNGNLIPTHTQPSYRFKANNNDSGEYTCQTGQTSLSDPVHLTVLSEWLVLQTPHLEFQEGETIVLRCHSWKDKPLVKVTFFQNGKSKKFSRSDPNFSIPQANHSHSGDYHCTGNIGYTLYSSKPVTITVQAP
The description is as above. Here is the method:
as §2

T9 sequence (P08637 17-208 F176V): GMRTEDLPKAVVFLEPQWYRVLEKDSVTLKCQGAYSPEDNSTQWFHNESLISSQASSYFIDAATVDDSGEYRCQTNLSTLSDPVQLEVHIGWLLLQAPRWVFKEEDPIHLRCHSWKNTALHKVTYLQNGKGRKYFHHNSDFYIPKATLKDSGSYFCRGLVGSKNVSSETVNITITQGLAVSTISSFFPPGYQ

B1: M103205H795-MY458/M103202L889-SK1 (antibody, human IgG1, kappa)
heavy: QVTLKESGPVLVKPTETLTLTCTVSGIDLSHDDISWVRQAPGKGLEWVGIISYAGSTYYASWAKGRLTISKDTSKNQVVLTMTNMDPVDTATYYCARGVPAYSHGGDLWGQGTLVTVSSASTKGPSVFPLAPSSKSTSGGTAALGCLVKDYFPEPVTVSWNSGALTSGVHTFPAVLQSSGLYSLSSVVTVPSSSLGTQTYICNVNHKPSNTKVDKKVEPKSCDKTHTCPPCPAYELLTGPSVFLFPPKPKDTLMISRTPEVTCVVVDVSDEDPEVKFNWYVDGVEVHNAKTKPREEQYNSTYRVVSVLTVLHQDWLNGKEYKCKVSNKALPKPIEKTISKAKGQPREPQVYTLPPSREEMTKNQVSLTCLVKGFYPSDIAVEWESNGQPENNYKTTPPVLDSDGSFFLYSKLTVDKSRWQQGNVFSCSVMHEALHNHYTQKSLSLSP
light: DIVMTQSPATLSLSPGERATLSCTSSQSVYHANWLSWFQQKPGQPPKLLIYWASTLAYGVPSRFSGSGSGTDFTLTISSLQPEDAATYYCAGGYGGGRYAFGQGTKVEIKRTVAAPSVFIFPPSDEQLKSGTASVVCLLNNFYPREAKVQWKVDNALQSGNSQESVTEQDSKDSTYSLSSTLTLSKADYEKHKVYACEVTHQGLSSPVTKSFNRGEC
notes: copies: 2 + 2
In general, Kd refers to a measure of binding affinity in units of concentration. As for B1, the Kd in [1] worked out at 1800 nM; in [2], 1600 nM; in test [3], 3000 nM; in test [4], 430 nM; in [5] it was 190 nM; in [6], 160 nM. In addition, the Kd in test [7] is 170 nM; in [8], 990 nM; in test [9] it was 5300 nM.

B2: GpH7-B3 variant N325F/GpL16-k0 (antibody, human IgG1, kappa)
heavy: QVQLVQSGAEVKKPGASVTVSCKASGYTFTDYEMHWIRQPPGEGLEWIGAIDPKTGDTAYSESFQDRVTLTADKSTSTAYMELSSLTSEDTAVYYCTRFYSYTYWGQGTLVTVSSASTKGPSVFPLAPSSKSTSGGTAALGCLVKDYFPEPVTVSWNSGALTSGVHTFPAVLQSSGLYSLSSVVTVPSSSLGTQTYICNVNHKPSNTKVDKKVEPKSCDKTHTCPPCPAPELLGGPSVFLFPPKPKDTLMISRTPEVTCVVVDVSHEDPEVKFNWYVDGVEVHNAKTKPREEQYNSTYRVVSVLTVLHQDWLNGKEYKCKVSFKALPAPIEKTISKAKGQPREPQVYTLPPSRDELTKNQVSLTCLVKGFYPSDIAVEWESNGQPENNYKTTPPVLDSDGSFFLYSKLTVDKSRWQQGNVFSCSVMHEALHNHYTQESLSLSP
light: DIVMTQSPLSLPVTPGEPASISCQASESLVHSNRNTYLHWYLQKPGQSPQLLIYKVSNRFSGVPDRFSGSGSGTDFTLKISRVEAEDVGVYYCSQNTHVPPTFGQGTKVEIERTVAAPSVFIFPPSDEQLKSGTASVVCLLNNFYPREAKVQWKVDNALQSGNSQESVTEQDSKDSTYSLSSTLTLSKADYEKHKVYACEVTHQGLSSPVTKSFNRGEC
For the molecule B2, the “Binding to human FcgRs (parent B3 = 100)” value in test [10] is 65 parent B3 = 100; in test [11], 72 parent B3 = 100.

B3: GpH7-B3 variant P238Y/GpL16-k0 (antibody, human IgG1, kappa)
heavy: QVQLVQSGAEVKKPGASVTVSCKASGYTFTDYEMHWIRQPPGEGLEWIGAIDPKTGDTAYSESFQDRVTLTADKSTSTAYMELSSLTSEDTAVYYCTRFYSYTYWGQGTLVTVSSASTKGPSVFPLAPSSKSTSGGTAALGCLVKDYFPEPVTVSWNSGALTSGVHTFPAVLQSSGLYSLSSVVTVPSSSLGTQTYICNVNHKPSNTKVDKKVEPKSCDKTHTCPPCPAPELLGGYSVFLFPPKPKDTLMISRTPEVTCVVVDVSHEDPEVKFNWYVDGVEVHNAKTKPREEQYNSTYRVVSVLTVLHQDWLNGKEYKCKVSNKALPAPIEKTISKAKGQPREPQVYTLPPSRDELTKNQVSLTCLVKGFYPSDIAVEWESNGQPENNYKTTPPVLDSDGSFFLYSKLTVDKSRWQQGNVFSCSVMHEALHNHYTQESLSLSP
light: DIVMTQSPLSLPVTPGEPASISCQASESLVHSNRNTYLHWYLQKPGQSPQLLIYKVSNRFSGVPDRFSGSGSGTDFTLKISRVEAEDVGVYYCSQNTHVPPTFGQGTKVEIERTVAAPSVFIFPPSDEQLKSGTASVVCLLNNFYPREAKVQWKVDNALQSGNSQESVTEQDSKDSTYSLSSTLTLSKADYEKHKVYACEVTHQGLSSPVTKSFNRGEC
In the case of B3, the entries for the “Binding to human FcgRs (parent B3 = 100)” value in [10] and in test [11] were 93 parent B3 = 100 and 114 parent B3 = 100, respectively.

The values above are taken from patent US20200317768A1 (published 2020).
